The record followed here is publication PMC8707168, “PL1 Peptide Engages Acidic Surfaces on Tumor-Associated Fibronectin and Tenascin Isoforms to Trigger Cellular Uptake” (Pharmaceutics, 2021).

Numbering of substitutions follows the chain as printed. Names and notes keep the numbering of the source. “Also recorded” adds a separate entry of the source. FAM = 5(6)-carboxyfluorescein; Ahx = NCCCCCC(=O)O

Broadly, the Kd is a measure of binding affinity in units of concentration.

In one test the test system is U87-MG cells. Nature of the test: Effect of endocytosis inhibitors on PL1-AgNP uptake (flow cytometry). To be noted: pre-incubation with 50 μM Nystatin, 50 μM EIPA, 4 μM Cytochalasin D or 10 μM Chlorpromazine, PL1-AgNPs 37 °C 1 h, etching, three independent experiments. The format is cell-based. As to the method: For characterization of the AgNP uptake pathway in glioma cells, the U87-MG cells were cultured until 80–90% confluency and pre-incubated with the following endocytosis inhibitors: (1) 50 μM Nystatin to block caveolae/lipid-mediated endocytosis, (2) 50 μM 5-(N-ethyl-N-isopropyl)-Amiloride (EIPA) to block […], (3) 4 μM Cytochalasin D to block actin polymerization and […], and (4) 10 μM Chlorpromazine to block clathrin-mediated endocytosis. The PL1-AgNPs or control biotin-AgNPs were then added, and the cells were incubated at 37 °C for 1 h and subsequently washed to remove free particles. Some samples were also treated with an etching solution to remove accessible surface-bound AgNPs. The fluorescence of the labeled AgNPs was detected and analyzed using the BD Accuri 6 flow cytometer in the 555 nm channel.
On the technique in general: In flow cytometry, cells or beads pass a laser one at a time.

A further test concerns the target T1, FN-EDB WT and mutants (Homo sapiens, UniProt P02751, D1277N/D1314N/D1317N).
T1 construct: Fibronectin Extra Domain B (FN-EDB); made in house; host or cells: E. coli BL21 Rosetta 2 (DE3) pLysS
Description: Binding of PL1 nanoworms to recombinant FN-EDB proteins. To be noted: FAM-labeled NWs, 80 µg/reaction, protein on Ni-NTA beads, fluorescence 485/535 nm, baseline corrected with control protein P32; three independent experiments. As to the method: (§1) Wild type (WT) TNC-C and FN-EDB were prepared as described previously. The DNA inserts encoding for hexahistidine-tagged mutant TNC-C variants (TNC-C E48Q, TNC-C D39N D45N, TNC-C D13N E70Q E88Q) and mutant FN-EDBs variants (FnEDB D68N D70N, FnEDB D52N D49N D12N, FnEDB E42Q D68N E64Q) were synthesized and cloned into pET28a+ expression vectors (GenScript Biotech BV, Netherlands). The resulting plasmids were transformed into the E. coli BL21 Rosetta 2 (DE3) pLysS strain (Novagen, #70956). The protein expression was induced with 0.5 mM IPTG and followed by culturing at 20 °C for 16 h. The bacterial cells were lysed by sonication (Bandelin Sonopuls HD 2070, Merck, Germany) in ice-cold IMAC buffer (25 mM Tris-HCL, 400 mM NaCl, 25 mM imidazole pH 8, protease inhibitors cocktail, DNase I, 1 mM MgCl2). […] The protein concentration was measured by bicinchoninic acid (BCA) assay (Thermo Scientific #23227). The protein purity and size were analyzed using 15% SDS-PAGE.
(§2) The recombinant hexahistidine-tagged TNC-C and EDB WT and mutant proteins (at 60 µg of protein/40 µL beads in PBS) were immobilized to Ni-NTA Magnetic Agarose Beads (QIAGEN, Hilden, Germany) at RT for 1 h. […] The fluorescence of eluted samples was quantified using a Victor X5 Multilabel Plate Reader (PerkinElmer, MA, USA) at an excitation wavelength of 485 nm and an emission wavelength of 535 nm.

A further test addresses T2, TNC-C WT and mutants (Homo sapiens, UniProt P24821, D1565N/D1571N).
T2 construct: Tenascin C C-isoform (TNC-C); made in house; host or cells: E. coli BL21 Rosetta 2 (DE3) pLysS
T2 sequence (P24821 1527-1617 D1565N/D1571N): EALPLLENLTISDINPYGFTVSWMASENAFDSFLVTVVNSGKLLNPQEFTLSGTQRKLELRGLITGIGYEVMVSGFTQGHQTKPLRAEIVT
Description: Binding of PL1 nanoworms to recombinant TNC-C proteins. The settings on record: FAM-labeled NWs, 80 µg/reaction, protein on Ni-NTA beads, fluorescence 485/535 nm, baseline corrected with control protein P32; three independent experiments. As to the method: as §1, §2

The target of test [1] is T3, PL1 peptide displayed on T7 phage.
T3 chain: PPRRGLIKLKTS
Nature of the test: phage binding to immobilized recombinant protein (Ni-NTA magnetic beads). To be noted: chain shown with the change;; parent: est. 100; read off a plot.

The target in test [2] is T4, PL1-functionalized iron oxide nanoworms (FAM-labelled PL1 peptide on NWs).
T4 chain: PPRRGLIKLKTS
Description: fluorescence readout of FAM-labeled PL1-NW binding to protein-coated NiNTA beads. To be noted: chain shown with the change; baseline correction with control protein P32; parent: est. 100; read off a plot.

Test [3] concerns the target Fibronectin Extra Domain B mutant D52N D49N D12N, hexahistidine-tagged (human). Nature of the test: binding of fluorescent peptide nanoworms to protein-coated beads; His-tagged proteins (60 µg/40 µL beads) on Ni-NTA magnetic agarose beads; FAM-labelled PL1-NW 80 µg/reaction in PBS, 1% BSA, 0.1% NP40; 6 washes; eluted with 500 mM imidazole; fluorescence 485/535 nm; percent of WT after baseline correction with control protein P32.

Test [4] has as its target Fibronectin Extra Domain B, wild type, hexahistidine-tagged (human) (UniProt P02751). Description: fluorescence polarisation; fluorescence anisotropy saturation binding in solution; fixed FAM-PL1, 0-112 µM FN-EDB or 0-275 µM TNC-C; PBS with 0.1% Pluronic F-127; 24 h at 25 °C; non-specific binding with 500 µM Biotin-Ahx-PL1; global fit, single site with ligand depletion.
In test [5] the target is Tenascin C C-isoform, wild type, hexahistidine-tagged. The description is as above.
Test [6] deals with Fibronectin Extra Domain B mutant D68N D70N, hexahistidine-tagged (human). Description: phage binding assay (titre of eluted phage); His-tagged proteins (30 µg/10 µL beads) on Ni-NTA magnetic agarose beads; T7 phage 5 x 10^8 pfu in 100 µL PBS, 1% BSA, 0.1% NP40, RT, 1 h; 6 washes; eluted with 500 mM imidazole; PFU counted; expressed as percent of WT protein.
Test [7] concerns the target Fibronectin Extra Domain B mutant D52N D49N D12N, hexahistidine-tagged (human). The test is described as above.
Test [8] deals with Fibronectin Extra Domain B mutant E42Q D68N E64Q, hexahistidine-tagged (human). The test is described as above.

T1 sequence (P02751 1271-1359 D1277N/D1314N/D1317N): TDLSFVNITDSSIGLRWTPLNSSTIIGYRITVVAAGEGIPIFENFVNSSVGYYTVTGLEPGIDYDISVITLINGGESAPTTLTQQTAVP

On to `CN(C)CCCN1c2ccccc2Sc2ccc(Cl)cc21` [Chlorpromazine], for which, in the test with U87-MG cells, the “Effect of inhibitor on the uptake of PL1-AgNPs in U87-MG cells” value (“Effect of inhibitor” for short) is on record as “statistically significant inhibitory effect”. Take “PL1-NW: iron oxide nanoworms coated with PL1 peptide labeled with FAM fluorophore ({FAM-Ahx}-PPRRGLIKLKTS-OH; also: peptide coated on iron oxide nanoworms)”: the “Reduction of PL1-NW binding to FN-EDB D52N D49N D12N mutant versus WT FN-EDB” value with FN-EDB WT and mutants is ~ 76%. In the test with TNC-C WT and mutants, the “Reduction of PL1-NW binding to TNC-C D39N D45N mutant versus WT TNC-C” value is ~ 100%. Consider `CCN(c1nc(N)c(C(=O)N=C(N)N)nc1Cl)C(C)C` [EIPA, 5-(N-ethyl-N-isopropyl)-Amiloride], for which the “Effect of inhibitor” value in the test on U87-MG cells was “statistically significant inhibitory effect; also recorded: strongest”. Consider `C=C1[C@@H](C)[C@H]2[C@H](Cc3ccccc3)NC(=O)[C@]23[C@H](OC(C)=O)/C=C/[C@@](C)(O)C(=O)[C@@H](C)C/C=C/[C@H]3[C@@H]1O` [Cytochalasin D], for which, in the test with U87-MG cells, the “Effect of inhibitor” value was “statistically significant inhibitory effect”.

With `C[C@@H]1[C@H](O)[C@@H](C)/C=C/C=C/CC/C=C/C=C/C=C/C=C/C(O[C@H]2O[C@H](C)[C@@H](O)[C@H](N)[C@@H]2O)CC2O[C@](O)(CC(O)C(O)CCC(O)CC(O)CC(O)CC(=O)O[C@H]1C)CC(O)C2C(=O)O` (stereo partly shown) [Nystatin], in the test with U87-MG cells, the “Effect of inhibitor” value is “statistically significant inhibitory effect”.

B1: Tenascin C C-isoform, wild type, hexahistidine-tagged D13N; E70Q; E88Q (protein)
chain: T2 sequence (P24821 1527-1617 D1565N/D1571N) with D13N, N39D, N45D, E70Q, E88Q
For B1, the percent of parent (% Change over wt TNC-C) was found to be 33 in test [1] and 70 in test [2].

B2: Tenascin C C-isoform, wild type, hexahistidine-tagged D39N; D45N (protein)
chain: T2 sequence (P24821 1527-1617 D1565N/D1571N)
For the molecule B2, in [2], the percent of parent (% Change over wt TNC-C) came out at 0.

B3: Tenascin C C-isoform, wild type, hexahistidine-tagged E48Q (protein)
chain: T2 sequence (P24821 1527-1617 D1565N/D1571N) with N39D, N45D, E48Q
Take B3: the percent of parent (% Change over wt TNC-C) in [1] turned out to be 38; in test [2], 64. For {FAM-Ahx}-PPRRGLIKLKTS-OH (also: peptide coated on iron oxide nanoworms) [PL1-functionalized iron oxide nanoworms (FAM-labelled PL1 peptide on NWs)], the percent reduction of binding against WT FN-EDB in test [3] was found to be 76%.

B4: Fibronectin Extra Domain B, wild type, hexahistidine-tagged, P02751 E42Q; D68N; E64Q (protein)
chain: EVPQLTDLSFVDITDSSIGLRWTPLNSSTIIGYRITVVAAGQGIPIFEDFVDSSVGYYTVTGLQPGINYDISVITLINGGESAPTTLTQQT
On to B4, for which the percent of parent (% Change over wt FnEDB) in test [2] came out at 57.

B5: Fibronectin Extra Domain B, wild type, hexahistidine-tagged, P02751 D68N; D70N (protein)
chain: B4 chain with Q42E, Q64E, D70N
Regarding B5, the percent of parent (% Change over wt FnEDB) in test [2] was 29. As to {5(6)‑carboxyfluorescein-Ahx}-PPRRGLIKLKTS-OH [FAM-PL1 peptide (free peptide)], the values for the dissociation constant Kd in test [4] and in test [5] were 1110 nM and 1140 nM, respectively. With PPRRGLIKLKTS [PL1 peptide displayed on T7 phage], the percent increase of binding against WT FN-EDB was found to be 142% in test [6] and 161% in test [8]. The same molecule returned a percent decrease of binding against WT FN-EDB in [7] of 87%.
